Experimental data reported in the DeepSol protein solubility set.

Experiment: soluble on expression in E. coli; label from the status in PepcDB or PDB records

Sequence | soluble on expression in E. coli
MQSINLPVDHSKIDANFEGYKVSMNNVHFSSKSLDQNLCLRAPSNEMITLQHMKVFSNDNQLFCDYSKCTDSQQFLYRILDTGHIQAMVYEKKTQIWNTSIVGSIDVGTNASSAFPTNLLFTENNLVVACNGISEITVFLAVSDSNWVKMLEHKVSEQGLSLIEARILNGKLNILAYHVESDDSKKTRSRIHSIRINLDDIDYADSLTVEKSMDLIQNGHFETCTFTNNGEIIFLSSEKPHVEGQQEDMEEKATSGQSKPKPTIEEQSRYLVDIKQLITPFDGDASNYLLFKSTFDYLVHNNHFLEINMKNVALVNALTGDAKQFIVTSNIMEMGYKLTLENLEWTFNRPGFQMRLHSEMLERIKFDENDYSQMETALIKYCSIAREIQLWCGQLFTLFGFHRRITGCDRAQMEHSWEQTGNIIQVAFKLKSEISKEDVKIDTTKTGIRLIVKDLTLLSGKLSGEIDENDVEICADQKTNSLKLKLKSIDDKKWEKLISVEYDTLKSLEDSEIKRTMKGEQVIESDEPMEECDETEGSMAFYWVDQESGKVLKQCDVSGSQVLFTSRQSSTSPALICLRHDVDGLLWSFDESAPSHVATLQAFGYVQASKTSRLWSGCSPNKSLACIVEGNNRVLLYSQKVEVSGSLSNRKTSQTVSHVSKQHLLRVECSDPIRGVQLTDTHLFAATKSHIHVAELNL | not soluble
MQSLDIKPTVGLIACCECGVAIEPNPANMCSGCLRSRVDITEGITRQCTIYMCKFCDRYFVPPSAWMRAELESKELLSICLKKLKPMLTKVRLTDACFVWTEAHSKRIKVKITIQKEVFTNTILQQAVVVEFTVHSQLCDDCRRAEAKDFWRACVQVRQRAEFKKTLFYLEQLLLKHSAHKECTGVKPVPTGIDFYFAKQQEARKFVDFLMTVLPCKYHYAQELVSHDTKNNTYDYKHTFCVEIVPICRDNIVCLPKKQAQQYGNMSQIVLCLRVSNVITLIDPNNLQLVDVQATNFWREPFDSLCGPKQLTEFYVLDVEPVNNFERKAGHGYVSKKHELADVWLVRSDQVGMSDAQSLSARTHIGHLLSPGDLVMAFDMKNCNVNNATFDAMNIDNVPDAIIVRKVFDRTRRTAKRQWKLKRLVVDGNIVGNETASVADEFQGFMEDIEEDALMREKINIYKDAEKGPNVDGDDAEDHPDAPTLAEMLDDLKFDDEEMKEAESAEDDEAMQE | not soluble
MQSWSRVYCSLAKRGHFNRISHGLQGLSAVPLRTYADQPIDADVTVIGSGPGGYVAAIKAAQLGFKTVCIEKNETLGGTCLNVGCIPSKALLNNSHYYHMAHGTDFASRGIEMSEVRLNLDKMMEQKSTAVKALTGGIAHLFKQNKVVHVNGYGKITGKNQVTATKADGGTQVIDTKNILIATGSEVTPFPGITIDEDTIVSSTGALSLKKVPEKMVVIGAGVIGVELGSVWQRLGADVTAVEFLGHVGGVGIDMEISKNFQRILQKQGFKFKLNTKVTGATKKSDGKIDVSIEAASGGKAEVITCDVLLVCIGRRPFTKNLGLEELGIELDPRGRIPVNTRFQTKIPNIYAIGDVVAGPMLAHKAEDEGIICVEGMAGGAVHIDYNCVPSVIYTHPEVAWVGKSEEQLKEEGIEYKVGKFPFAANSRAKTNADTDGMVKILGQKSTDRVLGAHILGPGAGEMVNEAALALEYGASCEDIARVCHAHPTLSEAFREANLAASFGKSINF | not soluble
MQVKSIKMRWESGGVNYCYLLSDSKNKKSWLIDPAEPPEVLPELTEDEKISVEAIVNTHHHYDHADGNADILKYLKEKNPTSKVEVIGGSKDCPKVTIIPENLKKLHLGDLEITCIRTPCHTRDSICYYVKDPTTDERCIFTGDTLFTAGCGRFFEGTGEEMDIALNNSILETVGRQNWSKTRVYPGHEYTSDNVKFVRKIYPQVGENKALDELEQFCSKHEVTAGRFTLKDEVEFNPFMRLEDPKVQKAAGDTNNSWDRAQIMDKLRAMKNRM | soluble
MQYINIANRGVKSLSPYQAGKPIEELERELGISNIVKLASNENPFGFPESAKKAIFEQLDKLTRYPDANGFELKQTIAKKFGVQPNQITLGNGSNDLLELFAHTFATEGDEIMYSQYAFIVYPLVTKAINAIVKEIPAKNWGHDLQGFLTALSDKTKLIYIANPNNPTGNFLTSQEIEDFLAEVPENVIVVLDEAYTEFTRSEERVDSFSLLKKYSNLIISRSLSKAYGLAGLRIGYAVSNPEIADLLNRVRQPFNCNSLALTAAVAVMNDDKFVEKVAENNRIEMRRYEDFCQKNQLDYIPSKGNFITIDFKQPAAPIYDALLREGVIVRPIAGYGMPNHLRISIGLPEENDKFFTALSKVLKFA | not soluble
MRALIIVDVQNDFCEGGSLAVTGGAALARAISDYLAEAADYHHVVATKDFHIDPGDHFSGTPDYSSSWPPHCVSGTPGADFHPSLDTSAIEAVFYKGAYTGAYSGFEGVDENGTPLLNWLRQRGVDEVDVVGIATDHCVRQTAEDAVRNGLATRVLVDLTAGVSADTTVAALEEMRTASVELVCSS | soluble
